In the supplement of paper PMC9112550, “Optimization of the antimicrobial peptide Bac7 by deep mutational scanning” (BMC Biology, 2022):

system: Escherichia coli TOP10; assay: shrunken log2 fold change of peptide-encoding DNA abundance (4.5 h post-induction vs induction); higher = less antimicrobial activity (less host growth inhibition); settings: time post-induction: 4.5 h; library: site-saturation at positions 5, 18, 19, 20
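Also: peptides expressed intracellularly from a pBAD plasmid library in pooled LB shake-flask culture, induced with 0.3% L-arabinose, DNA abundance read by NGS, three biological replicates, DESeq2 with apeglm shrinkage.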

| Sequence | shrunken log2 fold change |
| --- | --- |
| RRIRTRPPRLPRPRPRPSAWPRP | 0.0388 |
| RRIRTRPPRLPRPRPRPSCSPRP | -0.16 |
| RRIRTRPPRLPRPRPRPSDKPRP | -0.0752 |
| RRIRTRPPRLPRPRPRPSELPRP | -0.255 |
| RRIRTRPPRLPRPRPRPSEPPRP | -0.295 |
| RRIRTRPPRLPRPRPRPSERPRP | -0.186 |
| RRIRTRPPRLPRPRPRPSFSPRP | -0.262 |
| RRIRTRPPRLPRPRPRPSGEPRP | 2.88 |
| RRIRTRPPRLPRPRPRPSGFPRP | 0.131 |
| RRIRTRPPRLPRPRPRPSGYPRP | -0.256 |
| RRIRTRPPRLPRPRPRPSHDPRP | -0.459 |
| RRIRTRPPRLPRPRPRPSHVPRP | 2.39 |
| RRIRTRPPRLPRPRPRPSISPRP | -0.362 |
| RRIRTRPPRLPRPRPRPSIVPRP | -0.427 |
| RRIRTRPPRLPRPRPRPSKDPRP | -0.61 |
| RRIRTRPPRLPRPRPRPSKRPRP | -0.325 |
| RRIRTRPPRLPRPRPRPSLIPRP | -0.424 |
| RRIRTRPPRLPRPRPRPSMLPRP | -0.204 |
| RRIRTRPPRLPRPRPRPSPSPRP | -0.0444 |
| RRIRTRPPRLPRPRPRPSQEPRP | -0.184 |
| RRIRTRPPRLPRPRPRPSREPRP | 0.427 |
| RRIRTRPPRLPRPRPRPSRKPRP | 0.0182 |

| Sequence | shrunken log2 fold change |
| --- | --- |
| RRIRTRPPRLPRPRPRPSRVPRP | 0.526 |
| RRIRTRPPRLPRPRPRPSSKPRP | -0.201 |
| RRIRTRPPRLPRPRPRPSVAPRP | 0.00143 |
| RRIRTRPPRLPRPRPRPSVLPRP | -0.239 |
| RRIRTRPPRLPRPRPRPSWCPRP | -0.322 |
| RRIRTRPPRLPRPRPRPTAEPRP | 0.458 |
| RRIRTRPPRLPRPRPRPTCCPRP | -0.0411 |
| RRIRTRPPRLPRPRPRPTEAPRP | 0.0502 |
| RRIRTRPPRLPRPRPRPTETPRP | 0.171 |
| RRIRTRPPRLPRPRPRPTGKPRP | -0.108 |
| RRIRTRPPRLPRPRPRPTHKPRP | -0.0156 |
| RRIRTRPPRLPRPRPRPTHYPRP | 0.282 |
| RRIRTRPPRLPRPRPRPTIAPRP | -0.372 |
| RRIRTRPPRLPRPRPRPTKCPRP | -0.173 |
| RRIRTRPPRLPRPRPRPTKSPRP | 0.0353 |
| RRIRTRPPRLPRPRPRPTLRPRP | -0.023 |
| RRIRTRPPRLPRPRPRPTMEPRP | -0.489 |
| RRIRTRPPRLPRPRPRPTMKPRP | -0.334 |
| RRIRTRPPRLPRPRPRPTMVPRP | -0.0941 |
| RRIRTRPPRLPRPRPRPTNGPRP | -0.0801 |
| RRIRTRPPRLPRPRPRPTQRPRP | 0.11 |
| RRIRTRPPRLPRPRPRPTSGPRP | 0.0562 |

| Sequence | shrunken log2 fold change |
| --- | --- |
| RRIRTRPPRLPRPRPRPTTKPRP | -0.0673 |
| RRIRTRPPRLPRPRPRPTYRPRP | -0.0768 |
| RRIRTRPPRLPRPRPRPVCKPRP | -0.0432 |
| RRIRTRPPRLPRPRPRPVEVPRP | -0.0848 |
| RRIRTRPPRLPRPRPRPVFAPRP | 0.214 |
| RRIRTRPPRLPRPRPRPVFCPRP | -0.139 |
| RRIRTRPPRLPRPRPRPVHIPRP | -0.149 |
| RRIRTRPPRLPRPRPRPVILPRP | -0.994 |
| RRIRTRPPRLPRPRPRPVLTPRP | 1.21 |
| RRIRTRPPRLPRPRPRPVMWPRP | -0.11 |
| RRIRTRPPRLPRPRPRPVPPPRP | 0.396 |
| RRIRTRPPRLPRPRPRPVQHPRP | -0.217 |
| RRIRTRPPRLPRPRPRPVQRPRP | 0.132 |
| RRIRTRPPRLPRPRPRPVQVPRP | 0.0995 |
| RRIRTRPPRLPRPRPRPVRWPRP | 0.774 |
| RRIRTRPPRLPRPRPRPVSHPRP | -0.265 |
| RRIRTRPPRLPRPRPRPVSKPRP | -0.096 |
| RRIRTRPPRLPRPRPRPVTVPRP | 0.0698 |
| RRIRTRPPRLPRPRPRPVVMPRP | -0.0861 |
| RRIRTRPPRLPRPRPRPVVYPRP | -0.418 |
| RRIRTRPPRLPRPRPRPVWIPRP | -0.651 |
| RRIRTRPPRLPRPRPRPVWWPRP | 0.423 |

| Sequence | shrunken log2 fold change |
| --- | --- |
| RRIRTRPPRLPRPRPRPVYVPRP | -0.62 |
| RRIRTRPPRLPRPRPRPWCLPRP | -0.596 |
| RRIRTRPPRLPRPRPRPWFDPRP | -0.247 |
| RRIRTRPPRLPRPRPRPWFEPRP | 0.647 |
| RRIRTRPPRLPRPRPRPWGAPRP | 0.211 |
| RRIRTRPPRLPRPRPRPWGPPRP | -0.0265 |
| RRIRTRPPRLPRPRPRPWIHPRP | -0.636 |
| RRIRTRPPRLPRPRPRPWIMPRP | -0.621 |
| RRIRTRPPRLPRPRPRPWKNPRP | -0.0599 |
| RRIRTRPPRLPRPRPRPWKPPRP | 0.0143 |
| RRIRTRPPRLPRPRPRPWMGPRP | -0.116 |
| RRIRTRPPRLPRPRPRPWMLPRP | -0.0281 |
| RRIRTRPPRLPRPRPRPWMYPRP | -0.22 |
| RRIRTRPPRLPRPRPRPWNMPRP | -0.276 |
| RRIRTRPPRLPRPRPRPWTCPRP | -0.0449 |
| RRIRTRPPRLPRPRPRPWVNPRP | -0.208 |
| RRIRTRPPRLPRPRPRPWVYPRP | -0.294 |
| RRIRTRPPRLPRPRPRPWWNPRP | -0.233 |
| RRIRTRPPRLPRPRPRPWWPPRP | -0.0247 |
| RRIRTRPPRLPRPRPRPWYGPRP | -0.379 |
| RRIRTRPPRLPRPRPRPWYHPRP | -0.464 |
| RRIRTRPPRLPRPRPRPWYWPRP | -0.0177 |

| Sequence | shrunken log2 fold change |
| --- | --- |
| RRIRTRPPRLPRPRPRPYALPRP | -0.686 |
| RRIRTRPPRLPRPRPRPYATPRP | -0.178 |
| RRIRTRPPRLPRPRPRPYAYPRP | -0.0309 |
| RRIRTRPPRLPRPRPRPYCCPRP | -0.364 |
| RRIRTRPPRLPRPRPRPYDAPRP | 0.0888 |
| RRIRTRPPRLPRPRPRPYEEPRP | -0.573 |
| RRIRTRPPRLPRPRPRPYETPRP | -0.00043 |
| RRIRTRPPRLPRPRPRPYFGPRP | -0.589 |
| RRIRTRPPRLPRPRPRPYFKPRP | -0.577 |
| RRIRTRPPRLPRPRPRPYHTPRP | -0.723 |
| RRIRTRPPRLPRPRPRPYLPPRP | -0.513 |
| RRIRTRPPRLPRPRPRPYNNPRP | -0.429 |
| RRIRTRPPRLPRPRPRPYNQPRP | -0.33 |
| RRIRTRPPRLPRPRPRPYNYPRP | -0.866 |
| RRIRTRPPRLPRPRPRPYPKPRP | -0.0976 |
| RRIRTRPPRLPRPRPRPYQCPRP | -0.0724 |
| RRIRTRPPRLPRPRPRPYQMPRP | 0.0528 |
| RRIRTRPPRLPRPRPRPYQTPRP | -0.128 |
| RRIRTRPPRLPRPRPRPYRQPRP | -0.00615 |
| RRIRTRPPRLPRPRPRPYVWPRP | -0.131 |
| RRIRTRPPRLPRPRPRPYVYPRP | -1.18 |
